Legend:
[1] = tested on: RELA TALEN11-1L (left monomer) (synthetic (Xanthomonas TALE)?); test: cell_activity; details: TALEN pair mRNA 2 ng/ul zygote injection, 8 of 39 piglets; 21% of embryos tested in vitro; assayed as pair with right monomer; left/right assignment to …
[2] = tested on: RELA TALEN11-1R (right monomer) (synthetic (Xanthomonas TALE)?); test: cell_activity; details: TALEN pair mRNA 2 ng/ul zygote injection, 8 of 39 piglets; 21% of embryos tested in vitro; assayed as pair with left monomer; left/right assignment to …

GCCCCCCCACACAGCTG (double strand) [RELA TALEN left half-site]
activity (% edited of piglets born) [1]: 21

AGTACCCTGAGGCTAT (double strand) [RELA TALEN right half-site]
activity (% edited of piglets born) [2]: 21

— patent US20150313192
